# Test results as given in IntAct's records for PubMed 15205937.
# B1: Cysteine and glycine-rich protein 3 (Homo sapiens), P50461 (parent)
# chain: MPNWGGGAKCGACEKTVYHAEEIQCNGRSFHKTCFHCMACRKALDSTTVAAHESEIYCKVCYGRRYGPKGIGYGQGAGCLSTDTGEHLGLQFQQSPKPARSVTTSNPSKFTAKFGESEKCPRCGKSVYAAEKVMGGGKPWHKTCFRCAICGKSLESTNVTDKDGELYCKVCYAKNFGPTGIGFGGLTQQVEKKE
# Variants of: B1
# Details: with nrap_human NRAP
row,Variant,effect of a mutation on the interaction
1,C58G,disrupting interaction

# Variants of: B1
# Details: with nrap_human NRAP
# Remark: another data set of the same source
row,Variant,effect of a mutation on the interaction
1,C58G,decreasing interaction

# Variants of: B1
# Details: with actn2_human ACTN2, P35609
# actn2_human ACTN2, P35609, sequence (P35609 whole entry): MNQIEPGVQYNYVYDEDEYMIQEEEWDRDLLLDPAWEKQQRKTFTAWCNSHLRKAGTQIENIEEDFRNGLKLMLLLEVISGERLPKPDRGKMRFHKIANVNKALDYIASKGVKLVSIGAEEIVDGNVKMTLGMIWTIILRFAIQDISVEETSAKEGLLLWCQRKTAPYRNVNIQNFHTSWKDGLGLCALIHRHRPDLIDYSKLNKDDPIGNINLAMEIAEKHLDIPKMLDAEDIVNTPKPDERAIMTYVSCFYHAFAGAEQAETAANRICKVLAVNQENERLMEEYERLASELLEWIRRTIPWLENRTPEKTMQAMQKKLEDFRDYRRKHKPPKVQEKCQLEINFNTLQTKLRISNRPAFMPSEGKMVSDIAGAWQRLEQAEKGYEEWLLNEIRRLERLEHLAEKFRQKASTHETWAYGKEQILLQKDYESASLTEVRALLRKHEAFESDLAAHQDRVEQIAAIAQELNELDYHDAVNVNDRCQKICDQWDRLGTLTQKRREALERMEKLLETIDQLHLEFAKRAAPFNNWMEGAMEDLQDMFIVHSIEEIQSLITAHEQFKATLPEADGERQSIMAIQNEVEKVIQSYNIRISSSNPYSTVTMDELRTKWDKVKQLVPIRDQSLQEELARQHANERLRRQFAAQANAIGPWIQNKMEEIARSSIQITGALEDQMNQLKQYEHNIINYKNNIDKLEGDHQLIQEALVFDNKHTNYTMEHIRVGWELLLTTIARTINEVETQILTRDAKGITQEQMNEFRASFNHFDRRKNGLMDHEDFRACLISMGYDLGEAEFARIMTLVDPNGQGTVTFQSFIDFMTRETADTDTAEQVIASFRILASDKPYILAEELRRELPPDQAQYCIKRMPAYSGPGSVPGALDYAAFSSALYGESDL
row,Variant,effect of a mutation on the interaction
1,C58G,decreasing interaction
